T1: DGI-2 polypeptide (UniProt Q15004 1-111, limits assumed)
T1 construct: Soluble recombinant protein coated at 500 ng/well; vector tag of pIVEX2.3-MCS not described for this construct; also called KIAA0101
T1 sequence (looked up): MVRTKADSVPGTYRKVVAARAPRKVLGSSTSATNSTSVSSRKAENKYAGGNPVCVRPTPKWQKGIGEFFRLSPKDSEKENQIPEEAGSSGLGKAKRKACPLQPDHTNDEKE

T2: DGI-2 polypeptide (UniProt Q15004 1-111, limits assumed)
T2 construct: Vector-derived residues or tag of pIVEX2.3 are not described for this construct; also called KIAA0101
T2 sequence (looked up): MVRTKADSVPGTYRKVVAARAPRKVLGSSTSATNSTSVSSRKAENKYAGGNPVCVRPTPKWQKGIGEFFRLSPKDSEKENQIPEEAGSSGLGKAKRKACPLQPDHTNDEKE


Key:
[1] = biological target: T3, antibody raised against ETAG; experiment: phage ELISA
T3 construct: Coated at 500 ng/well; also called E-tag antibody
How it was run: (§1)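 Phage from individual clones were bound for 2 h at RT to wells coated with 500 ng DGI-2, LDH (non-specific), anti-E-tag antibody (positive control) or milk (negative control). Bound phage were detected with HRP-anti-M13 and ABTS at A405; positive clones gave ≥2-fold signal over background.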

DGI-2 polypeptide [2] = biological target: T1, DGI-2 polypeptide; experiment: phage ELISA
How it was run: as §1

[3] = biological target: T4, lactate dehydrogenase (LDH); experiment: phage ELISA
T4 construct: Coated at 500 ng/well as non-specific target; also called LDH polypeptide
How it was run: as §1

DGI-2 polypeptide [4] = biological target: T2, DGI-2 polypeptide; experiment: phage ELISA, 405 nm; DGI-2 coated
Procedure: (§2) For analysis of individual target binders, colonies were picked and phage prepared as described above using helper phage, M13KO7. Ninety-six-well microtiter plates were coated with 500 ng/well of specific target protein, 500 ng/well lactate dehydrogenase (LDH) irrelevant or non-specific target, 500 ng/well of positive control antibody raised against ETAG, and negative control of non-fat milk powder-PBS 2% at 4° C. overnight. Plates were then blocked with 350 microliters/well PBS containing 2% non-fat milk for 1 hr at room temperature. One hundred microliters per well of phage from isolated clones were added and plates were incubated at room temperature for 2 hr after centrifuging samples for 20 minutes at 3500 rpm at 4° C. The phage solution was then removed, and the wells were washed three times with PBS at room temperature. Antibody raised against M13 conjugated to horseradish peroxidase (Pharmacia) was diluted 1:3000 in PBS-Tween and added to each well (100 µl/well). Incubation was for 1 hr at room temperature, followed by washing with PBS-(0.5%) Tween 3 times as described. Color was developed by addition of ABTS solution (100 µl/well; Boehringer, Indianapolis, Ind.). Plates were analyzed at 405 nm. A clone was considered "positive" if the $A405$ of the well was $\geq$2-fold over background.

DGI-2 polypeptide [5] = biological target: T2, DGI-2 polypeptide; experiment: phage ELISA, 405 nm; DGI-2 signal over LDH signal
Procedure: as §2

[6] = biological target: T5, antibody raised against ETAG; experiment: phage ELISA, 405 nm; anti-E-tag antibody coated
T5 construct: read-out of display; also called E-tag antibody; E tag antibody
Procedure: as §2

Binder | ETAG (OD) [1] | DGI-2 (OD) (DGI-2 polypeptide [2]) | DGI-2/LDH (DGI-2 polypeptide [2]) | LDH (OD) [3] | DGI-2 (OD) (DGI-2 polypeptide [4]) | DGI-2/LDH (OD) (DGI-2 polypeptide [5]) | ETAG (OD) [6]
SRPGWCSRGTAWGFPGCSSSAAAGAPVPYPDPLEPRP [DGI-2-20R-3-C4] | 19.1 OD | 4.5 OD | 4.2 ratio | 1.1 OD |  |  | 
VLQRSLWKDWVDGVMHGGGSRGVAAAGAPVPYPDPLEPRP [DGI-2-20R-3-A7] | 13.9 OD | 4.8 OD | 5.1 ratio | 0.9 OD |  |  | 
LQIVRPAGWKMPGQVGYYIGAAAGAPVPYPDPLEPRP (not shown: phage gene III coat protein (pCANTAB5E)) [DGI-2-20R-3-A9] |  |  |  |  | 3.4 OD | 3.4 ratio | 14.3 OD
TSCQVMFLAGQHLLSRVPRLAAAGAPVPYPDPLEPRP (not shown: phage gene III coat protein (pCANTAB5E)) [DGL-2-20R-3-B6] |  |  |  |  | 2.8 OD | 2.7 ratio | 11.7 OD
LTPYSLARSWLSGRPSTGATAAAGAPVPYPDPLEPRP (not shown: phage gene III coat protein (pCANTAB5E)) [DGI-2-20F-3-C12] |  |  |  |  | 3.2 OD | 3.1 ratio | 15.1 OD
TANGHRYGGCGLWCKWMSGMAAAGAPVPYPDPLEPRP (not shown: phage gene III coat protein (pCANTAB5E)) [DGI-2-20R-4-E2] |  |  |  |  | 2.7 OD | 2.5 ratio | 18.2 OD
RNWLDKDCVWMGDCGARAGEAAAGAPVPYPDPLEPRP (not shown: phage gene III coat protein (pCANTAB5E)) [DGI-2-20F-4-E3] |  |  |  |  | 3.8 OD | 4.1 ratio | 16.9 OD
RWSICRGLQYSIPGCAVEDLSDVMAAAAGAPVPYPDPLEPRP (not shown: phage gene III coat protein (pCANTAB5E)) [DGI-2-20C-4-H316] |  |  |  |  | 3.8 OD | 3.9 ratio | 7.2 OD
DGI-2-40F-3-D6 (not shown: phage gene III coat protein (pCANTAB5E)) peptide: GLEPVPFQTDKRIAMGWTREWLVNGYGAAHRRDARMQSGHAAAGAPVPYPDPLEPRP |  |  |  |  | 2.5 OD | 2.6 ratio | 11.4 OD
MGSLGPFGNINSLASGIGSVRNRPLLPLHGSPAAAGAPVPYPDPLEPRP (not shown: phage gene III coat protein (pCANTAB5E)) [DGI-2-40F-3-D72] |  |  |  |  | 3.1 OD | 2.8 ratio | 14 OD
REFFNQASRGAWGYMFREWVEGAAAGAPVPYPDPLEPRP [DGI-2-40F-3-A1] | 9.9 OD | 4.5 OD | 5.2 ratio | 0.9 OD |  |  | 
MFQDVACDLWHSVRCLRRDVAAAGAPVPYPDPLEPRP [DGI-2-20R-3-B3] | 16.1 OD | 4.9 OD | 4.8 ratio | 1 OD |  |  | 
LSHPMSPLRAASQMALTQGVAAAGAPVPYPDPLEPRP (not shown: phage gene III coat protein (pCANTAB5E)) [DGI-2-20R-4-H7] |  |  |  |  | 3.1 OD | 2.6 ratio | 14.1 OD
DAGIGWVGSMWFPPGCIGACAAAGAPVPYPDPLEPRP (not shown: phage gene III coat protein (pCANTAB5E)) [DGI-2-20R-4-E82] |  |  |  |  | 3.9 OD | 3.7 ratio | 19.6 OD
RPVVCLAGLTLAQFGWVFPGWRGWSAAAGAPVPYPDPLEPRP [DGI-2-20C-3-C1039] | 11.8 OD | 4.7 OD | 4.7 ratio | 1 OD |  |  | 
MSTLQGPGHLFQMLRRASLGAAAGAPVPYPDPLEPRP (not shown: phage gene III coat protein (pCANTAB5E)) [DGI-2-20R-4-H12] |  |  |  |  | 3.7 OD | 2.8 ratio | 10.9 OD
DGI-2-40F-4-F122 (peptide) peptide: RSQVRVVSRERSTPVLHRIECLLFSGWCVTSGSDEGVVWGAAAGAPVPYPDPLEPRP | 8.1 OD | 4.7 OD | 5.7 ratio | 0.8 OD |  |  | 
DGI-2-40F-4-F6 (not shown: phage gene III coat protein (pCANTAB5E)) peptide: SYRNFAMQSSLQVRRGSVVEDGTCWWEGVRCYSGAAAGAPVPYPDPLEPRP |  |  |  |  | 3.2 OD | 3.2 ratio | 13.5 OD
DGI-2-40F-4-E62 (peptide) peptide: TCWHRGLNVVRYSVNFGVRDARLTTQGMAWFPPGCGQGCVAAAGAPVPYPDPLEPRP | 14.8 OD | 4.6 OD | 4.5 ratio | 1 OD |  |  | 
DGI-2-40F-3-D7 (not shown: phage gene III coat protein (pCANTAB5E)) peptide: ALRSLGSGGFGWQAGRASPQGMTHFPYFGWSGMPTARVRPAAAGAPVPYPDPLEPRP |  |  |  |  | 2.6 OD | 2.6 ratio | 10.3 OD
SWRLWVSGELQGDRRKGLRGAAAGAPVPYPDPLEPRP (not shown: phage gene III coat protein (pCANTAB5E)) [DGI-2-20R-3-B7] |  |  |  |  | 3.1 OD | 3 ratio | 11.7 OD
GSVLERGCLEFSGFCFSLGHAAAGAPVPYPDPLEPRP (not shown: phage gene III coat protein (pCANTAB5E)) [DGI-2-20F-3-C1] |  |  |  |  | 3.4 OD | 3.4 ratio | 14 OD
YTPASILTGFQRGYEGAGNGAAAGAPVPYPDPLEPRP [DGI-2-20R-4-G7] | 11.6 OD | 4.7 OD | 3.9 ratio | 1.2 OD |  |  | 
MSSTAWTDRILQRGIGLGPVAAAGAPVPYPDPLEPRP [DGI-2-20R-4-F1212] | 9.8 OD | 4 OD | 3.3 ratio | 1.2 OD |  |  | 
LHFGSVMGWRPPGSLWSRPFGQVHPRSWSGSAAAGAPVPYPDPLEPRP (not shown: phage gene III coat protein (pCANTAB5E)) [DGI-2-40F-3-D11] |  |  |  |  | 3.8 OD | 2.9 ratio | 10.5 OD
